PMC6820557, “Discovery of dual-activity small-molecule ligands of Pseudomonas aeruginosa LpxA and LpxD using SPR and X-ray crystallography” (Scientific Reports, 2019)

Experiments:
[1] = biological target: the molecule itself; assay: crystal structure; LpxA soaked with compound 1 (2.10 Å) or compound 2 (2.00 Å); P212121, six monomers per asymmetric unit; 12% PEG 1000, 0.2 M calcium acetate, 0.1 M imidazole pH 7.0
[2] = biological target: the molecule itself; assay: SEC; HiLoad 16/60 Superdex 75; 20 mM Tris-HCl pH 8.6, 250 mM NaCl
[3] = biological target: the molecule itself; assay: SEC; HiLoad 16/60 Superdex 75; 20 mM Tris pH 8.6, 250 mM NaCl, 1 mM EDTA

B1: P. aeruginosa LpxA (enzyme, Pseudomonas aeruginosa)
chain: MSLIDPRAIIDPSARLAADVQVGPWSIVGAEVEIGEGTVIGPHVVLKGPTKIGKHNRIYQFSSVGEDTPDLKYKGEPTRLVIGDHNVIREGVTIHRGTVQDRAETTIGDHNLIMAYAHIGHDSVIGNHCILVNNTALAGHVHVDDWAILSGYTLVHQYCRIGAHSFSGMGSAIGKDVPAYVTVFGNPAEARSMNFEGMRRRGFSSEAIHALRRAYKVVYRQGHTVEEALAELAESAAQFPEVAVFRDSIQSATRGITR
notes: LpxA, Pseudomonas aeruginosa; Two of the deposited entries 6UEC, 6UED, 6UEE, 6UEG hold this protein
- binding result [1]: binds

B2: N-terminal His-tagged P. aeruginosa LpxD with a 2 amino acid deletion (enzyme, Pseudomonas aeruginosa, UniProt Q9HXY6 3-353, looked up)
chain: STLSYTLGQLAAHVGAEVRGDADLPIQGLATLQEAGPAQLSFLANPQYRKYLPESRAGAVLLTAADADGFAGTALVVANPYLAYASLSHLFDRKPKAAAGIHPTAIVAADAEVDPSASVGAYAVIESGARIGAGVSIGAHCVIGARSVIGEGGWLAPRVTLYHDVTIGARVSIQSGAVIGGEGFGFANEKGVWQKIAQIGGVTIGDDVEIGANTTIDRGALSDTLIGNGVKLDNQIMIAHNVQIGDHTAMAACVGISGSAKIGRHCMLAGGVGLVGHIEICDNVFVTGMTMVTRSITEPGSYSSGTAMQPAAEWKKSAARIRQLDDMARRLQQLEKRLAAVTSSGDASSDA
notes: LpxD, Pseudomonas aeruginosa; they lay immediately after the N-terminal 18-AA hexahistidine tag and protease site (thrombin site replaced by a TEV site); Parent construct is that of the published structure (PDB 3PMO), with the thrombin site replaced by a TEV site; The mutagenesis primer reads ENLYFQG followed by STLSYT; Two of the deposited entries 6UEC, 6UED, 6UEE, 6UEG hold this construct; also …
- stoichiometry N [2]: 3

B3: biotinylated avidity (Avi) tagged LpxA (enzyme, Pseudomonas aeruginosa, UniProt Q9X6P4 1-258, looked up)
chain: B1 chain
modifications: biotin (on the Avi tag)
notes: LpxA, Pseudomonas aeruginosa; gene inserted into the BamHI and HindIII sites of the pAvibir plasmid; printed mass of Avi-LpxA 31.6 kDa; also called Avi-LpxA; source: E. coli Rosetta DE3 pLysS, purified (HisTrap, Superdex 75)
- stoichiometry N [3]: 3

B4: biotinylated avidity (Avi) tagged LpxD (enzyme, Pseudomonas aeruginosa, UniProt Q9HXY6 1-353, looked up)
chain: MMSTLSYTLGQLAAHVGAEVRGDADLPIQGLATLQEAGPAQLSFLANPQYRKYLPESRAGAVLLTAADADGFAGTALVVANPYLAYASLSHLFDRKPKAAAGIHPTAIVAADAEVDPSASVGAYAVIESGARIGAGVSIGAHCVIGARSVIGEGGWLAPRVTLYHDVTIGARVSIQSGAVIGGEGFGFANEKGVWQKIAQIGGVTIGDDVEIGANTTIDRGALSDTLIGNGVKLDNQIMIAHNVQIGDHTAMAACVGISGSAKIGRHCMLAGGVGLVGHIEICDNVFVTGMTMVTRSITEPGSYSSGTAMQPAAEWKKSAARIRQLDDMARRLQQLEKRLAAVTSSGDASSDA
modifications: biotin (on the Avi tag)
notes: LpxD, Pseudomonas aeruginosa; gene inserted into the BamHI and HindIII sites of the pAvibir plasmid; printed mass of Avi-LpxD 39.8 kDa; also called Avi-LpxD; source: E. coli Rosetta DE3 pLysS, purified (HisTrap, Superdex 75)
- stoichiometry N [3]: 3
